Source: paper PMC9638944, “ATM-mediated ELL phosphorylation enhances its self-association through increased EAF1 interaction and inhibits global transcription during genotoxic stress” (Nucleic Acids Research, 2022)
One block for each molecule: values may come before it.

Columns and labels:
EAF1 = EAF1 (UniProt Q96JC9); test: IP of tagged ELL, EAF1 blot; conditions: reference: wild type ELL; sites T551,S561,S589
[1] = biological target: the molecule itself; test: co-sedimentation; glycerol gradient of purified recombinant His-GFP-ELL
GST-ELL = biological target: T1, GST-ELL (human, UniProt P55199 1-621); test: pull-down; GST or GST-ELL bound to glutathione beads incubated with purified prey in 20 mM Tris-Cl pH 8, 20% glycerol, 2 mM EDTA, 150 mM KCl, BSA 20 ng/μl, 0.1% NP-40, 10–12 h, 4°C; immunoblot; some panels with purified EAF1 added; conditions: both partners purified
T1 construct: ELL (aka ELL1), human; Cloned in pET-GST
T1 sequence (looked up): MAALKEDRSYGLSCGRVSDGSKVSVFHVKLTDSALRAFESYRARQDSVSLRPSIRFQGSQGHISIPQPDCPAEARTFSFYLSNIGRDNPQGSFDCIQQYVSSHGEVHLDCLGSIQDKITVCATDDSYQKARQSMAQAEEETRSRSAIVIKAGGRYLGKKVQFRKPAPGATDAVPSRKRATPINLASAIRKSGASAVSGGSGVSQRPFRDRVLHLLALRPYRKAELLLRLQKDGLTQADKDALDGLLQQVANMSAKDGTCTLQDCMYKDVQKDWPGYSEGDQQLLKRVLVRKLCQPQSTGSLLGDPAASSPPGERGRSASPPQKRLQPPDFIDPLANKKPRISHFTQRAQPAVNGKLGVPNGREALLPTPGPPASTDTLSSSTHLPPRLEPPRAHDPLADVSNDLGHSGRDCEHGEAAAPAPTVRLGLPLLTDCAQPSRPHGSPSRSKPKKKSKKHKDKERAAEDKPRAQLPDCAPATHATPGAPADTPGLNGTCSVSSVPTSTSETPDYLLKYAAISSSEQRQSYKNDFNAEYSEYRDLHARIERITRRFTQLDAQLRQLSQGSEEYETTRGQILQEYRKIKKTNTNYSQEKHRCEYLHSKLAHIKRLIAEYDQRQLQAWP

binding against the reference (EAF1): weaker
Molecule: ELL (aka ELL1) (from UniProt P55199) ELL TM (T551A, S561A, S589A)

binding result (GST-ELL): binds
B1: His-GFP-ELL (natural protein, human, UniProt P55199 1-621, looked up)
chain: T1 sequence (looked up)
notes: ELL (aka ELL1), human; Cloned in pET-11d; also called GFP-ELL (in vitro); purified recombinant ELL protein; source: E. coli BL21(DE3), purified (Ni-NTA)
binding result [1]: binds
